According to the supplement of paper PMC11780869:

Test system: Bacillus subtilis
Test: cleaved RNA product abundance (RNA/gDNA barcode ratio) relative to median wild-type variant (ratio to wild type); higher = more accumulation of the downstream cleavage product
Details: cleavage site: cggR-gapA (positions -7 to +36 mutated)
How it was run: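 The B. subtilis chromosome carried reporter mRNAs, truncated aprE or tetM, containing barcoded RNase Y cleavage-site windows mutagenized using oligos with a 9% error rate. After growth in LB at 37°C from OD600 0.0003 to 0.3, cleaved RNA was gel-selected, reverse transcribed and barcode-sequenced next to genomic DNA barcodes, with UMI collapsing. Each construct's RNA:gDNA barcode ratio was scaled to the median construct with the unmutated site. That scaled ratio is reported as cleaved product abundance.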

[1] = experiment (reporter, strain, medium): exp 4a: truncated aprE reporter, strain BJT201 with 2% xylose (RNase J1 expressed)
[2] = experiment (reporter, strain, medium): exp 2b: truncated aprE reporter, strain BJT200

Sequence	cleaved RNA product abundance [1]	cleaved RNA product abundance [2]
ACAGACGAAGGAGCCGCAAAGAGGTTATTAAGGGATGAATAATCCGTCAATATAAATATCTCTCACTTATTTAAA	0.296	
ACAGACGAAGGAGCCGCAAAGAGGTTATTAAGGTATGAATAATCCCTCAATATAAATATCTCTCACTTATTTAAA	0.1	
ACAGACGAAGGAGCCGCAAAGAGGTTATTAAGTGATGAATAATCCCTCAATATAAATATCTCTCACTTATTTAAA	0.0848	
ACAGACGAAGGAGCCGCAAAGAGGTTATTAATGGATGAATAATCCCTCAATATAAATATCTCTCACTTATTTAAA	0.0978	0.13
ACAGACGAAGGAGCCGCAAAGAGGTTATTTAGGGATGAATAATCCCTCAATATAAATATCTCTCACTTATTTAAA	0.527	
ACAGACGAAGGAGCCGCAAAGATATTATTAAGGGATGAATAATCCCTCAATATAAATATCTCTCACTTATTTAAA	0.459	0.93
ACAGACGAAGGAGCCGCAAAGATGATATTAAGGGATGAATAATCCCTCAATATAAATATCTCTCACTTATTTAAA	0.676	0.664
ACAGACGAAGGAGCCGCAAAGATGCTATTAAGGGATGAATAATCCCTCAATATAAATATCTCTCACTTATTTAAA	0.848	
ACAGACGAAGGAGCCGCAAAGATGTAATTAAGGGATGAATAATCCCTCAATATAAATATCTCTCACTTATTTAAA	0.427	
ACAGACGAAGGAGCCGCAAAGATGTCATTAAGGGATGAATAATCCCTCAATATAAATATCTCTCACTTATTTAAA	0.205	
ACAGACGAAGGAGCCGCAAAGATGTTAATAAGGGATGAATAATCCCTCAATATAAATATCTCTCACTTATTTAAA	0.311	0.237
ACAGACGAAGGAGCCGCAAAGATGTTATAAAGGGATGAATAATCCCTCAATATAAATATCTCTCACTTATTTAAA	0.441	0.259
ACAGACGAAGGAGCCGCAAAGATGTTATCAAGGGATGAATAATCCCTCAATATAAATATCTCTCACTTATTTAAA	0.328	0.239
ACAGACGAAGGAGCCGCAAAGATGTTATTAAAGGATGAATAATCCCTCAATATAAATATCTCTCACTTATTTAAA	0.129	
ACAGACGAAGGAGCCGCAAAGATGTTATTAACGGATGAATAATCCCTCAATATAAATATCTCTCACTTATTTAAA	0.151	0.104
ACAGACGAAGGAGCCGCAAAGATGTTATTAAGAGATGAATAATCCCTCAATATAAATATCTCTCACTTATTTAAA	0.156	
ACAGACGAAGGAGCCGCAAAGATGTTATTAAGCGATGAATAATCCCTCAATATAAATATCTCTCACTTATTTAAA	0.11	0.0873
ACAGACGAAGGAGCCGCAAAGATGTTATTAAGGAATGAATAATCCCTCAATATAAATATCTCTCACTTATTTAAA	0.145	0.102
ACAGACGAAGGAGCCGCAAAGATGTTATTAAGGCATGAATAATCCCTCAATATAAATATCTCTCACTTATTTAAA	0.104	0.108
ACAGACGAAGGAGCCGCAAAGATGTTATTAAGGGAAGAATAATCCCTCAATATAAATATCTCTCACTTATTTAAA	0.51	
ACAGACGAAGGAGCCGCAAAGATGTTATTAAGGGATAAATAATCCCTCAATATAAATATCTCTCACTTATTTAAA	0.906	
ACAGACGAAGGAGCCGCAAAGATGTTATTAAGGGATCAATAATCCCTCAATATAAATATCTCTCACTTATTTAAA	1.08	0.708
ACAGACGAAGGAGCCGCAAAGATGTTATTAAGGGATGAAAAATCCCTCAATATAAATATCTCTCACTTATTTAAA	0.733	0.583
ACAGACGAAGGAGCCGCAAAGATGTTATTAAGGGATGAATAAACCCTCAATATAAATATCTCTCACTTATTTAAA	0.275	
